Measured values reported in the nanobody polyreactivity screen of Harvey et al. (2022).

Test: yeast display, Sf9 membrane polyspecificity reagent, FACS + sequencing; frameworks hold sequencing errors
Outline: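 Using colony PCR, genes from sorted yeast display clones were amplified, then sequenced on MiSeq at 2 × 250 and filtered by CDR length. The clones had been stained with 10% biotinylated, detergent-solubilized Sf9 membrane reagent for 1 hour at 4 °C and sorted by FACS into low and high (top ~1%) gates on anti-HA and streptavidin fluorescence. Polyreactivity labels come from the gate of origin.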

| Sequence | polyreactivity (PSR sort gate) |
| --- | --- |
| QVQLVESGGGLVQAGCSLRLSCDASGSTFNWNAMGRYRQAPGKERELVAVIRRNGATTNYADSVKGRFTISRDNAKITVYLQMNSLKPEDTAVYYCAVAKWQPRRRKYYYWGQGTQVTVSS | high polyreactivity |
| QVQLVESGGGLVQAGCSLRLSSAASGFTFAYYVMGWYRQAPGKERELVAAISISGGRTYYADSVKGRFTISRDNEKNSVYLQMNRLKPEETAVYYCAADRRTDGHDYWGQGSQVTVSS | high polyreactivity |
| QVQLVESGGGLVQAGCSLRLSWAASGFTFTYYAMGWYRQEPGKERELVAAISDGGASTYYSDSVKGRFTISRDNAKNTVYLQMNSLKPEDTAVYYCAAETYWPWKDDYWGQGTQVTVSS | high polyreactivity |
| QVQLVESGGGLVQAGDSLRLSCAASGLTFSAYVMGWYRQAPGKERELVAATSRRGGTTYYADSVKGRFTISRDNAKITVYLQMNSLKPEDTAVYYCGTDYTSGSSYHVGYCGQGTQVTVSS | high polyreactivity |
| QVQLVESGGGLVQAGDSLRLSCAASGRIFKRNTMGWYRQAPGKERELVAAITRSGGSTYYADSVKGRFTISRDNAMNNVYLQMNSLKPEDTAVYYCNAPQYIGSVPIGDYWGLGTQVTVSS | high polyreactivity |
| QVQLVESGGGLVQAGDSLRLSCAASGSIFAWKTKGWYRQAPGTERELVAAISSGDSTYYADSVKGRFTISRDNAKNPVYLQMNSLKPEDTAVYYCAATYYQDRRRGYWGQGTQVTVSS | high polyreactivity |
| QVQLVESGGGLVQAGGCLRLSCAASGRISSSYAMGWYRLAAGKERELVAAITSRGGSTYYADSVKGRFTISRDNAKNTVYLQMNSLKPEDTAVYYCNAPGYLTYDHSYDYWGQGTQVTVSS | low polyreactivity |
| QVQLVESGGGLVQAGGCLRLSCAASGSTFPIYDMGWYRQAPGKERELVAAITYSGGSTNYADSVKRRFTNSRDNAKTSVYFQMNSLKPDDTAVYYCAARYTAYIQSGMGYWGQGSQVTVSS | high polyreactivity |
| QVQLVESGGGLVQAGGCLRLSCAASGSTFRGNAMGWYRQAPGKERELVAAITYSGGSTDYADSVKGRFTISRDNAKNTVYLQMNSLKPDDTAVYYCAARWYYYPLLYDYWGQGTQVTVSS | low polyreactivity |
| QVQLVESGGGLVQAGGCLRLSCAASGSTLDSNAMGWYREAPGKERELVAGIDWCGGSTYADSVKGRFTISRDNAKNTVELQMTSLKPEDTAVYYCAKVSRYVQPYSRFDYWGQGTQVTVSS | low polyreactivity |
| QVQLVESGGGLVQAGGCLRLSCADSGGTFGPYAMGWYIQAPGKEREFVARITGSGTRTYYADSVKGRFTISGDNAKNNVYLQMNSLNPEDTAVYYCATSHSRGSRGHDYWGQGTQVTVSS | low polyreactivity |
| QVQLVESGGGLVQAGGGLRLSFPASGRTFTVNAMGWSRQSPGKERELVATITYGGGSRYYADSVKGRFTISRDNAKNSVYLQMNSLKPEDTAVYYCAARSDNYHVYYFKRWGKYYSWGQGTQVTVSS | low polyreactivity |
| QVQLVESGGGLVQAGGIHRLSCASTGRTFPAYAMGWYRQAPGKERELVAAITINGGYTYYADSVKGRFTISRDNAKNSVYLQMKSLKPEDTAVYYCAAYYDSPSHGYWGQVTQVTVSS | low polyreactivity |
| QVQLVESGGGLVQAGGIIRLSCDASGSTFVIYAMGWYRQAPGKERELVAVIDYSDDSTYYADSVKGRFTISRDNAKNTGYLQLNSVKPEVTEVYFCAAYVYYAKGSFDYWGQGTQVTVSS | high polyreactivity |
| QVQLVESGGGLVQAGGILRFSCAASGRTFKYYAMGWYRQAPGKERELVAAISYNGGSTFYADSVKGRFTISRDNAKNTVYLQLNSLKPEDTAVYYCAAGPRGTGKYYWGQGTQVTVSS | high polyreactivity |
| QVQLVESGGGLVQAGGILRLICAASGSIFYYNAMGWSRQAPGKERELVAAITKSGTRTNYADSVKGRFTISRDNAKNTVYLQMNSLKPEDTAVYDCAAEDQYYRYVCAYEYWGQGTQVTVSS | high polyreactivity |

| Sequence | polyreactivity (PSR sort gate) |
| --- | --- |
| QVQLVESGGGLVQAGGILRLSCAASARIFTYKAMGWYRQAPGKERELVAAITNGGSTYYADSVKGRFTISRDNAKNTVYLQMNSMKPEDTAVYYCNRVVYRPRYRYGYWGQGTQVTVSS | high polyreactivity |
| QVQLVESGGGLVQAGGILRLSCAASGFIFAYYAMGWYRQAPGKEREFVAVITSSGGRTYYADSVKGRFTISRDNAKNTVYLQMNSLNPVDTAVYYCATSRGYANKYYYWGQGSQVTVSS | low polyreactivity |
| QVQLVESGGGLVQAGGILRLSCAASGFIFNRYAMGWSRQSPGKARELVADITGGSTYYADSVKGRFTISRDNAKNTVYLQMNSLKPEDTAVYYCAAYVWRYWHEYDYWGQGTQVTVSS | low polyreactivity |
| QVQLVESGGGLVQAGGILRLSCAASGFIFRLYAKGWYRQAPGKERGLVAAISSGTSTYYADSVKGRFTISRDNAKNTVYLQMNSLIPEDTAVYYCAARISRYPQDDSDYWGQGTQVTVSS | high polyreactivity |
| QVQLVESGGGLVQAGGILRLSCAASGFIFTANDMGWYIQAPGKVRELVAAISSGGRTYYADSVKGRFTISRDNAKNSVYFQKNSLKPEDTAVYYCARDLYVRNGQRARYDSWGQGTQVTVSS | high polyreactivity |
| QVQLVESGGGLVQAGGILRLSCAASGFTFGRYAMGRSRQAPGKEREFVAAISYTGTSTYYADSVKGRFTISRDNAKNTVYLQMNSRNPEDTAVYYCNAKWRSHYTQWSYDYWGQCTQVTVSS | high polyreactivity |
| QVQLVESGGGLVQAGGILRLSCAASGFTFSDNAMGWYIQAPGKERELVAAISRSGGRTYYADSVKGRFTISRDNAKNTVYLQMNSLKPEDTAVYYCAAYQYGMDYWGQGSQVTVSS | high polyreactivity |
| QVQLVESGGGLVQAGGILRLSCAASGHIFFYYNMGWYRQAPGKERELVAGITIGGSTNYADSVKGRFTISRDNAKNTVNLQMNSLTPEDTAVYYCAKGGEVSQGYTDEYDYWGLGTQVTVSS | low polyreactivity |
| QVQLVESGGGLVQAGGILRLSCAASGIIFNTNFMGWYRQAPGKERELVAAISRTNYADSVKGRFTISRDNAKNNVFLEMNSLHPEDTSVYDCIVELQYGRPGGQEFDYWGQGSQVTVSS | low polyreactivity |
| QVQLVESGGGLVQAGGILRLSCAASGINFLYYAMGWYREAPGKEMELVAAINGSGGNTYYADSVKGRFTISLDNAKNTVYLQMNRLKPEDTAVYYCNADFFVYSYQQWDEYYDYWGQGTQVTVSS | low polyreactivity |
| QVQLVESGGGLVQAGGILRLSCAASGITFRRSAKGWYRQAPGKERELVAGISYSGGTTYYADSVKGRFTISRDNAKNTVYLQMNSLKAEDTAVYYCAAKRISYTREGYSQYDDWGQGSQVTVSS | high polyreactivity |
| QVQLVESGGGLVQAGGILRLSCAASGLIFSYNTMGWYRHAPGKERELVAGNTSSGSTYYADSVKGRFTISRDNAKNSVYLQMNSLKPEDTAVYYCAAEWDDGRSWYWYYLVGFEYWGQGTQVTVSS | high polyreactivity |
| QVQLVESGGGLVQAGGILRLSCAASGLIFTYYAMGWYRQAPWKERELLAAINYSGGSTYYADSVKGRFTISRDNAKNTVYLQMNSLKPEDTAVYYCNAGYGEHPLSGYEYWGQSTQVTVSS | low polyreactivity |
| QVQLVESGGGLVQAGGILRLSCAASGLSFSWYDMGWYRQAPGKERELVAAITTDGDDTYYADSVKGRFTISRDNAKNTVYLQMNSLKPEDTAVYYCAADSELAIRYPDRDYDSWGQGTQVTVSS | low polyreactivity |
| QVQLVESGGGLVQAGGILRLSCAASGRIFNGYAMGWYRQAPGKERELVAAITSGGRTYADSVKGRFTISRDNAKNTVYLQMYSLKPEDTAVYYCAADAGRILFSGYDYWGQGTQVTVSS | low polyreactivity |
| QVQLVESGGGLVQAGGILRLSCAASGRIFYVNAMGWYRQAPGKERELVAAITWIDGSTYYADSVKGRFTISRDNAKNTVYLQMNSLKPEDTAVYYCAAGGYFYSFYYWGQGTQVTVSS | low polyreactivity |
